Experimental data published in patent US20260265800A1, “NEW FUCOSYLTRANSFERASES FOR IN VIVO SYNTHESIS OF LNFP-III” (DSM IP Assets B.V., priority 2022, published 2026).

Key:
LNnT = assay: Deep well assay: HMO profile of LNnT-producing strains expressing α-1,3-fucosyltransferases (HPLC); type: cell-based, Escherichia coli
Description: Deep Well Assays in the current examples were performed as originally described to Lv et al (Bioprocess Biosyst Eng 20 (2016) 39:1737-1747) and optimized for the purposes of the current invention. More specifically, the strains disclosed in the present example were screened in 96 deep well plates using a 4-day protocol. During the first 24 hours, precultures were grown to high densities (OD600 up to 5) and subsequently transferred to a medium that allowed induction of gene expression and product formation.
More specifically, during day 1, fresh precultures were prepared using a basal minimal medium (BMM) (pH 7.0) supplemented with magnesium sulphate (0.12 g/L), thiamine (0.004 g/L) and glucose (5.5 g/L). Basal Minimal medium had the following composition: NaOH (1 g/L), KOH (2.5 g/L), KHzPO4 (7 g/L), NH&HzPO4 (7 g/L), Citric acid (0.5 g/l), trace mineral solution (5 mL/L). The trace mineral stock solution contained; ZnSO~*7H~O 0.82 g/L, Citric acid 20 g/L, Mn$04*H&O 0.98 g/L, FeSO4*7H&O 3.925 g/L, CuSO4*5H~O 0.2 g/L. The pH of the Basal Minimal Medium was adjusted to 7.0 with 5 N NaOH and autoclaved. The precultures were incubated for 24 hours at 34° C. and 1000 rpm shaking and then further transferred to 0.75 ml of a new BMM (pH 7,5) to start the main culture. The new BMM was supplemented with magnesium sulphate (0.12 g/L), thiamine (0.02 g/L), a bolus of glucose solution (0.1-0.15 g/L) and a bolus of lactose solution (5-20 g/L) Moreover, a 20% stock solution of sucrose (40-45 g/L) or maltodextrin (19-20 g/L) was provided as carbon source, accompanied by the addition of a specific hydrolytic enzyme, sucrose hydrolase or glycoamylase, respectively, so that glucose was released at a rate suitable for carbon-limited growth and similar to that of a typical fed-batch fermentation process. The main cultures were incubated for 72 hours at 28° C. and 1000 rpm shaking. For the analysis of total broth, the 96 well plates were boiled at 100° C., subsequently centrifuged, and finally the supernatants were analysed by HPLC.
Genetically modified cells expressing individual α-1,3-fucosyltransferase enzymes were screened for their ability to produce the fucosylated HMO LNFP-III.
Genetically modified strains expressing the six individual α-1,3-fucosyltransferases (table 5) were generated as described in the “Method” section. The cells were screened in the deep well assay setup as described in the “Method” section.
The molar content of individual HMOs produced by the strains was measured by HPLC.
The results of the LNFP-III producing cells are shown in table 7 as the fraction of the total molar HMO content (in percentage, %) produced by each strain.

β-galactosidase activity [1] = assay: LacZ assay of promoter strength; type: cell-based; details: LacZ assay at 30° C.; Plac induced with IPTG
Description: Increasing the promoter strength driving the expression of the desired enzyme may be one way of doing this. The strength of a promoter can be assessed using a lacZ enzyme assay where β-galactosidase activity is assayed as described previously (see e.g., Miller J. H. Experiments in molecular genetics, Cold spring Harbor Laboratory Press, NY, 1972). Briefly the cells are diluted in Z-buffer and permeabilized with sodium dodecyl sulfate (0.1%) and chloroform. The LacZ assay is performed at 30° C. Samples are preheated, the assay initiated by addition of 200 μl ortho-nitro-phenyl-β-galactosidase (4 mg/ml) and stopped by addition of 500 μl of 1 M Na2CO3 when the sample had turned slightly yellow. The release of ortho-nitrophenol is subsequently determined as the change in optical density at 420 nm. The specific activities are reported in Miller Units (MU) [A420/(min*ml*A600)]. A regulatory element with an activity above 10,000 MU is considered strong and a regulatory element with an activity below 3,000 MU is considered weak, what is in between has intermediate strength. An example of a strong regulatory element is the PglpF promoter with an activity of approximately 14.000 MU and an example of a weak promoter is Plac which when induced with IPTG has an activity of approximately 2300 MU. […]

β-galactosidase activity [2] = details: LacZ assay, cited from earlier work; for % Activity relative to PglpF: PglpF as positive reference, a range indicates results from multiple assays
[3] = two genomic copies and high copy plasmid (pUC57-Parm1-PglpF)

| Molecule | promoter activity in Miller Units (β-galactosidase activity [1]) | % Activity relative to PglpF (β-galactosidase activity [2]) | Strength (β-galactosidase activity [2]) | further results |
| --- | --- | --- | --- | --- |
| Parm1: α-1,3-fucosyltransferase from Parabacteroides merdae, GenBank WP_129943149.1, SEQ ID NO: 2 (protein, listed as Parabacteroides merdae) MKHETPVLSFIIPIYNVELYLPACLESVLHLPLTNFEIILIDDGSTDNSGRIADKYAENYSHIHVIHQTNAGLSATRNRGVELAEGNYIAFLDSDDWLIGDQIVDIYLQTSQANADMGMGNSLFCYPDGSNGNPFAPIPQNLIGQTIDGKYCFTELMKQNVYPPMVYNYIYRREWLLSHQLRFESVLHEDELWTPIALCYARRIVVTNIDFYGYRQREGSIMTSLRREKRIHDLFFIADRLIRLAENYRFDSDDKNLKSQLYVRSYLLYKIAFSSLAHIHDTRFILPTHHLYQLFAIKNKLTADARNTCINQYKTAKQGLKSYLKWRNSYWIRKLTYEISPETKLILIFNTMWNKPLDIPIQKIPANCIITTDRRFLSTADFVVFHLPDLSNELEEDLDKPEGQKWVAWSLECEENYHFLKDPEFMEVFDYKMSYHQDADIVYPYYRYEYRKELILMPEFSFHEKKDICMMISSPFNQSGRQEYLQELMQYISIDSYGKLFNNCKLEKDSGQDSKMELYRQYKFVIAFENSRANDYVTEKFYDPLLAGAVPIYLGAPNIETFAPGENCSVDIRNFSSPKELAAFLIEACKNEKIYNKFLQWKKEPLKPEFMKKIEAQRVHPFIRLCHLLHLPPPTSRYDGARKKNAHRS | – | – | – | LNnT, % of total HMO molar (mM) content produced by each strain (LNnT; FT copy nr as in table 7): 21%; amount of LNnT produced, % of the total HMO content (LNnT; two genomic copies): 14%; relative amount of LNFP-III produced, % of the total HMO content (LNnT; two genomic copies): 81%; amount of LNnT produced, % of the total HMO content (LNnT; [3]): 5%; relative amount of LNFP-III produced, % of the total HMO content (LNnT; [3]): 86% |
| Plac_wt: promoter sequence, SEQ ID NO: 37 (nucleic acid, listed as Escherichia coli, expressed or natural sequence) DNA: TGTGAGTTAGCTCACTCATTAGGCACCCCAGGCTTTACACTTTATGCTTCCGGCTCGTATGTTGTGTGGAATTGTGAGCGGATAACAATTTCACACAGGAAACAGCT | approximately 2300 MU | 15-28% | low (a regulatory element with an activity below 3,000 MU is considered weak) | – |
| Hacin2: α-1,3-fucosyltransferase from Helicobacter acinonychis, GenBank WP_104687422.1, SEQ ID NO: 5 (protein, listed as Helicobacter acinonychis) MFQPLLDAYTDSAYSDASDHKPPLNIAIANGWGGTKGFEASVLYFILSWRYKIALHENPNKPADLVFSNPLGQARKILSYQNTKRVFYTGENEVPNFNLFDYAIGFDGLDFKERYLRMPLYYASLHDKAQSVNDTTAPYTLKSDSLYALKKPAHCFKEDHPKLCSVVKGESDPFKRGFASFVAGNANAPMRNAFCEALNSVEPVTGGGAVKNTLGYNVTNKSEFLSQYKFNLCFENAQGYGYVTEKIIDAYFSHTIPIYWGSPSVAQDFNPKSFVNVHDFKDFDGAIDYIRYLHTHENAYLDMLYENPLNVIDGKACFYQDLSFKKILDFFKTILENDTIYHNNPFVFDRDLHEPLVSIDNLRADLLLLKDNYDGLKTDYDGLKTDYDGLKTDYDGLKTDYDGLKTDYDGLKTDYDGLKTDYDHLFKSALPLLELSQTTSFKIYHKIYQKTLPLLRMARKLVKK | – | – | – | LNDFH-III, % of total HMO molar (mM) content produced by each strain (LNnT; FT copy nr as in table 7): do not produce any |
| PglpF: promoter sequence, SEQ ID NO: 28; positive reference of the LacZ assay (nucleic acid, listed as Escherichia coli) DNA: GCGGCACGCCTTGCAGATTACGGTTTGCCACACTTTTCATCCTTCTCCTGGTGACATAATCCACATCAATCGAAAATGTTAATAAATTTGTTGCGCGAATGATCTAACAAACATGCATCATGTACAATCAGATGGAATAAATGGCGCGATAACGCTCATTTTATGACGAGGCACACACATTTTAAGTTCGATATTTCTCGTTTTTGCTCGTTAACGATAAGTTTACAGCATGCCTACAAGCATCGTGGAGGTCCGTGACTTTCACGCATACAACAAACATTAACCAAGGAGGAAACAGCT | approximately 14.000 MU | 100% | high (A regulatory element with an activity above 10,000 MU is considered strong) | – |
